{
  "source": "patent US20220072157",
  "target": "C3b, P01024",
  "sequence (P01024 whole entry, looked up)": "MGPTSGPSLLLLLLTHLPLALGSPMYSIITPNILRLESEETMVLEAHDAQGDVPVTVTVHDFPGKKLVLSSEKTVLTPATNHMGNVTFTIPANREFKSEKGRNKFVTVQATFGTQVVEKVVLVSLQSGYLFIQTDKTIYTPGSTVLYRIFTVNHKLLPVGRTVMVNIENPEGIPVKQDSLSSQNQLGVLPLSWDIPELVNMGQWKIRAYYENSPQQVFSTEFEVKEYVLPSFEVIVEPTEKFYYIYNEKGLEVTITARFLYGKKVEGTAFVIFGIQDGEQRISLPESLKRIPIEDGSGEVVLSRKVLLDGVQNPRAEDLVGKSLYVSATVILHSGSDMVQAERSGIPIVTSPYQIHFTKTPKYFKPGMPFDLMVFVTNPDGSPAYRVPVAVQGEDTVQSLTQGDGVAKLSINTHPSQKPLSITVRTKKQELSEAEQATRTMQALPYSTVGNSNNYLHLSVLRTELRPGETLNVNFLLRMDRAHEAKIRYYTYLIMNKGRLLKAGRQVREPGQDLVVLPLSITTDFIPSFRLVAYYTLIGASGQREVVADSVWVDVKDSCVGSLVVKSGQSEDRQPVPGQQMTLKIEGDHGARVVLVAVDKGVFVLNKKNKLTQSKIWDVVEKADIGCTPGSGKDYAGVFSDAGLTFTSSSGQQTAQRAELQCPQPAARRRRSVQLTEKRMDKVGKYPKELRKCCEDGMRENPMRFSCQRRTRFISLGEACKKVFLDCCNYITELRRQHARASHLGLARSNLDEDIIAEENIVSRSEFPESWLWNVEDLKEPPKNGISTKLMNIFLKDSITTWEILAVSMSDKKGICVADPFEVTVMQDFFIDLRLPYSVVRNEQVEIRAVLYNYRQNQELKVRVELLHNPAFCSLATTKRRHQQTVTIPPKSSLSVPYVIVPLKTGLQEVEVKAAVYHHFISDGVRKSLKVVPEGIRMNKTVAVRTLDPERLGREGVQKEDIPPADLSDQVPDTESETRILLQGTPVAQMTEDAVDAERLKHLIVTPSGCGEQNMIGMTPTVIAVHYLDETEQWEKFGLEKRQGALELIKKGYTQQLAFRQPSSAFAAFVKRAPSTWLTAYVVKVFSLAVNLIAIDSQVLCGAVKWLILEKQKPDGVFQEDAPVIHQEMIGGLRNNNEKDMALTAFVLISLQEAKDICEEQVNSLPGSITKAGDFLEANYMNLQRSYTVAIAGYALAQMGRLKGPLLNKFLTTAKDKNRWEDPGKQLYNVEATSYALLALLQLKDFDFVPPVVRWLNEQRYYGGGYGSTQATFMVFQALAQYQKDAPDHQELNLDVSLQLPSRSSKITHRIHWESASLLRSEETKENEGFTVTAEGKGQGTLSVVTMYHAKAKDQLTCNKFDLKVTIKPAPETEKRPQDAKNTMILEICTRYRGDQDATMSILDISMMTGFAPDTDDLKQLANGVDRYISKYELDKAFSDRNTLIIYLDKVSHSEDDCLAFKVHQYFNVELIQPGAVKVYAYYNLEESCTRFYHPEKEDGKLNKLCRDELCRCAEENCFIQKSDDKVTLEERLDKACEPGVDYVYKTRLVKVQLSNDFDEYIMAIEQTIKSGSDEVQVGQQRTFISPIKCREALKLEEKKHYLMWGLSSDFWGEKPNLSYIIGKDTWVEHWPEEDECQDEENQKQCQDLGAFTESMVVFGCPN",
  "data": [
    {"protein": "Complement Factor I (CFI) (protein) KVTYTSQEDLVEKKCLAKKYTHLSCDKVFCQPWQRCIEGTCVCKLPYQCPKNGTAVCATNRRSFPTYCQQKSLECLHPGTKFLNNGTCTAEGKFSVSLKHGNTDSEGIVEVKLVDQDKTMFICKSSWSMREANVACLDLGFQQGADTQRRFKLSDLSINSTECLHVHCRGLETSLAECTFTKRRTMGYQDFADVVCYTQKADSPMDDFFQCVNGKYISQMKACDGINDCGDQSDELCCKACQGKGFHCKSGVCIPSQYQCNGEVDCITGEDEVGCAGFASVTQEETEILTADMDAERRRIKSLLPKLSCGVKNRMHIRRKRIVGGKRAQLGDLPWQVAIKDASGITCGGIYIGGCWILTAAHCLRASKTHRYQIWTTVVDWIHPDLKRIVIEYVDRIIFHENYNAGTYQNDIALIEMKKDGNKKDCELPRSIPACVPWSPYLFQPNDTCIVSGWGREKDNERVFSLQWGEVKLISNCSKFYGNRFYEKEMECAGTYDGSIDACKGDSGGPLVCMDANNVTYVWGVVSWGENCGKPEFPGVYTKVANYFDWISYHVGRPFISQYNV", "values": [
      {"measurement": "cleavage of C3b to iC3b quantified by ELISA (cofactor assay; CFI and C3b fixed, CFH or FHL1 titrated)", "value": "a minimum functional CFI:CFH/FHL1 molar ratio is 1:2"}
    ]}
  ]
}
